Experimental data as given in patent US20050142137A1 (CURAGEN, published 2005).

Columns and labels:
[1] = target: T1, recombinant human SLPI (Secretory leukocyte protease inhibitor), R&D Systems Cat#260-PI (human, UniProt P03973 25-131, biotinylated in the streptavidin-plate ELISAs and on SRBCs); experiment: limiting antigen ELISA, biotinylated SLPI coated at 100 ng/ml
T1 construct: Bought protein; also called biotinylated SLPI; B-Cur12
Procedure: (§1) The limiting antigen analysis is a method that affinity ranks the antigen-specific antibodies in B cell culture supernatants. […] Each plate was washed 5 times with dH₂O, before 46 μl/well of 1% milk in PBS with 0.05% sodium azide was added, followed by 4 μl/well of B cell supernatant. After 22 hours at RT on a shaker, the plates were again washed 5 times with dH₂O. Goat anti-Human (Fc)-HRP at 1 μg/ml, 50 μl/well was added. After 1 hour at RT, the plates were again washed 5 times with dH₂O and 50 μl/well of TMB substrate was added. The reaction was stopped by the addition of 50 μl of 1M phosphoric acid to each well and the plates were read at wavelength 450 nm. 42C1, 43H7, 35F1 and 9G12 were chosen for further evaluation and cloning.

[2] = target: T1, recombinant human SLPI (Secretory …); experiment: ELISA, B cell supernatant on biotinylated SLPI, rescreen
[3] = target: T1, recombinant human SLPI (Secretory …); experiment: BIAcore 2000, 25 C, antibody captured on goat anti-human surface, SLPI injected
Procedure: BiaCore® analysis was used to determine binding affinity of anti-SLPI antibody to SLPI antigen. The analysis was performed at 25° C. using a BiaCore® 2000 biosensor equipped with a research-grade CM5 sensor chip. A high-density goat α human antibody surface over a CM5 BiaCore® chip was prepared using routine amine coupling. Antibody supernatents were diluted to ˜5 μg/mL in HBS-P running buffer containing 100 μg/mL BSA and 10 mg/mL carboxymethyldextran. The antibodies were then captured individually on a separate surface using a 2 minute contact time, and a 5 minute wash for stabilization of antibody baseline.
SLPI antigen was injected over each surface for 75 seconds, followed by a 3-minute dissociation. Double-referenced binding data were obtained by subtracting the signal from a control flow cell and subtracting the baseline drift of a buffer inject just prior to the SLPI injection. SLPI binding data for each mAb were normalized for the amount of mAb captured on each surface. The normalized, drift-corrected responses were also measured.

[4] = target: T1, recombinant human SLPI (Secretory …); experiment: ELISA, recombinant antibody in HEK 293 supernatant titrated 1:2 on biotinylated human SLPI
Text: After isolation of single plasma cells, mRNA was extracted and reverse transcriptase PCR was used to generate cDNA. The cDNA encoding the variable heavy and light chains was specifically amplified using polymerase chain reaction. The variable heavy chain region was cloned into an IgG2 expression vector, generated by cloning the constant domain of human IgG2 into the multiple cloning site of pcDNA3.1+/Hygro (Invitrogen, Burlington, ON). The variable light chain region was cloned into an IgK expression vector, generated by cloning the constant domain of human IgK into the multiple cloning site of pcDNA3.1+/Neo (Invitrogen, Burlington, ON). The heavy chain and the light chain expression vectors were then co-lipofected into a 60 mm dish of 70% confluent human embryonic kidney 293 (HEK 293) cells and the transfected cells were incubated for 24 hours to secrete recombinant antibody. Supernatant (3 mL) was harvested from the HEK 293 cells and the secretion of intact antibody and binding to SLPI tested ELISA. To detection secretion, 96 well plates were coated with 2 μg/mL of goat anti-human IgG H+L overnight. For detection of SLPI binders, streptavidin plates were coated with biotinylated human SLPI (0.5 μg/mL) overnight at four degrees. The plates were washed five times with dH₂O. Recombinant antibodies titrated 1:2 for 7 wells from the undiluted minilipofection supernatant were added, incubated and the plates were washed five times with dH₂O. Goat anti-human IgG Fc-specific HRP-conjugated antibody was added at a final concentration of 1 μg/mL, incubated for 1 hour at RT and the plates were washed as before. Plates were developed with the addition of TMB for 30 minutes and the reaction was stopped by the addition of 1 M phosphoric acid. Each ELISA plate was analyzed to determine the optical density of each well at 450 nm.

[5] = target: T1, recombinant human SLPI (Secretory …); experiment: ELISA, B cell supernatant on biotinylated SLPI, primary screen
Procedure: Anti-SLPI antibody titers were determined by indirect ELISA. Briefly, biotinylated SLPI (0.5 μg/mL) was coated onto Sigma Streptavidin Clear Polystyrene 96 well ELISA plates for 30 minutes at room temperature (RT). The plates were then washed 4× by hand, then pat dried on paper towels. XenoMouse® animal sera from SLPI immunized, or naïve XenoMouse® animals, were titrated out to 6 wells, the last well left blank, in 1% no fat skim milk/PBS at 1:2 dilutions in duplicate from a 1:500 initial dilution. 50 μl was used for each well. The plates were incubated for 1 hour then washed four times. 50 μl of a goat anti-human IgG Fc-specific HRP-conjugated antibody (0.4 μg/mL) was added to each well and incubated for 1 hour at RT. The plates were washed five times with distilled water (dH₂O). The plates were developed with the addition of TMB for 30 minutes and the ELISA was stopped by the addition of 1 M phosphoric acid. The specific titers of individual XenoMouse® animals were determined from the optical density at 450 nm, Table 2. The titers represent the reciprocal dilution of the serum to either SLPI or streptavidin and therefore the higher the number, the greater the humoral immune response. Lymph nodes were harvested for XenoMax® antibody generation from immunized XenoMouse® animals with specific titers to SLPI versus streptavidin as shown in Table 4.
B cells from the harvested animals were cultured and those secreting SLPI-specific antibodies were isolated as described previously (Babcook et al., 1996 Proc. Natl. Acad. Sci. USA, 93:7843-7848). ELISA, performed as described above, was used to identify primary SLPI-specific wells from fifty plates cultured at 500 or 150 cells/well.

[6] = target: T1, recombinant human SLPI (Secretory …); experiment: limiting antigen ELISA, biotinylated SLPI coated at 50 ng/ml
Procedure: as §1

T1 sequence (P03973 25-131): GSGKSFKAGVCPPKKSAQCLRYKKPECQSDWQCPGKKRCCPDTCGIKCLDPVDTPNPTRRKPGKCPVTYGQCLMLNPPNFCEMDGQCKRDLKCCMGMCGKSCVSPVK

B1: 35F1 (antibody, human IgG2, V domains shown)
VH: QVQLQESGPGLVKPSQTLSLTCTVSGGSIKSGDYYWSWVRQLPGKGLEWIGYIYYSGSTYYNPSLKSRVTISIDTSKNQFSLKLSSVTAADTAVYYCAREGSYYDSGGFDYWGQGTLVTVSS
VL: not shown
notes: Fully human, XenoMouse XMG2; also called #50; Cur12.1 PL35 F1
Question: Which results are given for B1?
Answer: OD [1]: 0.2 OD450; 2* OD [2]: 0.41 OD450; Kd [3]: 0.14 nM; Binding to SLPI (titre of supernatant) [4]: > 64 reciprocal dilution; 1* OD [5]: 0.425 OD450; OD [6]: 0.17 OD450

B2: 42C1 (antibody, human IgG2, V domains shown)
VH: QVQLQESGPGLVKPSQTLSLTCTVSGVSISSGGYYWSWIRQHPGKGLEWIGYIYYSGSTYYNPSLKSRVTISVDTSKNQFSLKLSSVTAADTAVFYCAREGEYYDEGGFDYWGQGTLVTVSS
VL: not shown
notes: Fully human, XenoMouse XMG2; also called #24; Cur12.1 PL42 C1
Question: B2 was tested. Which OD [1] did it give?
Answer: 3.42 OD450

Question: And the “2* OD” value [2]?
Answer: 2.25 OD450

Question: What about the Kd [3] of the same binder?
Answer: 0.116 nM

Question: What about the “Binding to SLPI (titre of supernatant)” value [4] of the same binder?
Answer: > 64 reciprocal dilution

Question: And the “1* OD” value [5]?
Answer: 3.23 OD450

Question: What about the OD [6] of the same binder?
Answer: 3.01 OD450

B3: 43H7 (antibody, human IgG2, V domains shown)
VH: QVQLVESGGGVVQPGRSLRLSCAASGFTFSTYGMHWVRQAPGKGLEWVTFIWYDGRNKYYADSVKGRFTVSRDNSKNTLYLQMNSLRAEDTAVYYCARGDDYGDYHPHYYYYGLDVWGQGTTVTVSS
VL: DIVMTQTPLSLSVTPGQPASISCKSSQSLLDSDGKTYLYWYLQKPGQPPQLLIYEVSNRFSGVPDRFSGSGSGTDFTLKISRVEAEDVAYYYCMQSIQLPWTFGQGTKVEIK
notes: Fully human, XenoMouse XMG2; also called #11; Cur12.1 PL43 H7
Question: How did the OD [1] turn out when B3 was run?
Answer: 2.6 OD450

Question: And the “2* OD” value [2]?
Answer: 2.28 OD450

Question: What about the Kd [3] of the same binder?
Answer: 0.104 nM

Question: And the “Binding to SLPI (titre of supernatant)” value [4]?
Answer: > 64 reciprocal dilution

Question: And the “1* OD” value [5]?
Answer: 3.37 OD450

Question: And the OD [6]?
Answer: 1.19 OD450

B4: 9G12 (antibody, human IgG2, V domains shown)
VH: QVQLVESGGGVVQPGRSLRLSCAASGFTFSGYGMHWVRQAPGKGLEWVAFIWYNGNDNYYTDSVKGRFTISRDNSKNTLYLQMNSLRAEDTAVYYCARGDDYGDYHPHYYYYGMDVWGQGTTVTVSS
VL: DIVMTQTPLSLSVTPGQPASISCKSSQSLLDSDGKTYLYWYLQKPGQPPQLLIYEVSNRFSGVPDRFSGSGSGTDFTLKISRVEAEDIGVYYCLQSIQLPWTFGQGTKVEIK
notes: Fully human, XenoMouse XMG2; also called #36; Cur12.1 PL09 G12
Question: For B4, which OD [1] is on record?
Answer: 0.98 OD450

Question: What about the “2* OD” value [2] of the same binder?
Answer: 1.97 OD450

Question: What about the Kd [3] of the same binder?
Answer: 0.053 nM

Question: And the “Binding to SLPI (titre of supernatant)” value [4]?
Answer: > 64 reciprocal dilution

Question: What about the “1* OD” value [5] of the same binder?
Answer: 2 OD450

Question: What about the OD [6] of the same binder?
Answer: 0.6 OD450
